Results: the DeepSol protein solubility set

Assay: soluble on expression in E. coli; label from the status in PepcDB or PDB records

Row | Sequence | soluble on expression in E. coli
1 | MSLDYDLLIKNGQTVNGMPVEIAIKEKKIAAVAATISGSAKETIHLEPGTYVSAGWIDDHVHCFEKMALYYDYPDEIGVKKGVTTVIDAGTTGAENIHEFYDLAQQAKTNVFGLVNISKWGIVAQDELADLSKVQASLVKKAIQELPDFVVGIKARMSRTVIGDNGITPLELAKQIQQENQEIPLMVHIGSAPPHLDEILALMEKGDVLTHCFNGKENGILDQATDKIKDFAWQAYNKGVVFDIGHGTDSFNFHVAETALREGMKAASISTDIYIRNRENGPVYDLATTMEKLRVVGYDWPEIIEKVTKAPAENFHLTQKGTLEIGKDADLTIFTIQAEEKTLTDSNGLTRVAKEQIRPIKTIIGGQIYDNEGHHHHHH | soluble
2 | MSLEAKQTKKSLPLRSEIPVEETWRLEDIFPTDEAWEQEFQEVKKMIPKLAEYQGRLGESADVLYEALQYQDEVSMRLGKLYTYAHMRYDQDTTNAFYQGLNDRATSLYSEASSAMAFIVPEILAIDEVKLRSFLEEKQELKLYEHALDEINRQRPHVLSAEEEALLAQAAEVMQSSSSTFSMLNNADLTFPTIIDENGEEVEVTHGRFIRFLESTDRRVRRDAFKAVYDTYEKYKNTFASTLAGTVKKDNFFARVRRYKSAREAALSSNNIPESVYDNLIETVHEHLPLLHRYVRLRKKVLGLDELHMYDLYTPLVQDVKMEVTYEEAKEYMLKALAPLGEEYISIVKEGLENRWVDVRENKGKRSGAYSSGAYGTHPYILLNWQDNVNNLFTLVHEFGHSVHSYYTRKTQPYPYANYSIFVAEVASTCNEALLNDYLLKTMDEEKKRLYLLNHYLEGFRGTVFRQTMFAEFEHMIHIKAQEGEALTADSLTSLYYELNKKYFGDDIVVDQEIGLEWARIPHFYYNYYVYQYATGFSAATALSKQILEEGEPAVKRYIEFLKAGSSDYPIEVLKKAGVDMTSAEPIRQACQVFAEKLEEMENLLSEGHHHHHH | soluble
3 | MSLEAKVDKPRLNQEQAIAIAAVNSQQGFGCFLLEGVTGSGKTEVYLNLITPVLARGEQALVLVPEIGLTPQTINRFRQRFNVPVEVMHSALNDTERLNAWLAARDKVAGIVIGTRSALLTPFAKLGIIIVDEEHDSSYKQQDSLRYHARDVAVMRAHLENIPIVLGSATPALETLHNALSGKYHHLQLTQRAGNALPTRNHALDVKGLYLESGLSAPLIAEMRRHLSAGNQVMLFLNRRGFSPALMCHECGWIAECQRCDAYYTYHQHSNEMRCHHCGSQRPVLHQCKGCGSTQLVTVGVGTEQLEAQLHTLFPEYRSVRIDRDSTRRKGSLESALTAIRKGEYQILIGTQMLAKGHHFPDVTLVALLDVDGSLYSSDFRASERLAQLFIQVAGRAGRASKPGEVVLQTHHPEHSLLQALLHKDYHHFALTALEERKLAQLPPYSFLSLFRAEANHTAQVEDFLRQVRETLRCNPWFDSECMVLGPTPAPLAKRAGKFRWQLLLQTPNRTLMQKILQSARPALQQLPLASKVRWSIDIDPQDLSEGHHHHHH | not soluble
4 | MSLEDTGIFGYSRAGSINGIEYPYVINVKTDFVENDGKLNFMGEEIDRMLIYPSQIKQEIVETESFVIIPNGAELIRRPKNLVSIIMNVHEKYGFSKLIYLSGLPDPYSIPALVYLGVSFFDDAYFRIEGINGLQFTQYGIRRTNEDQTENNMNFVRSMLNVIKDSIMNGTLRDIVEKNLVSSKAAEMIRIADYSYYEEYEKIFPSRTPYIKANTIEDLYRPDIVRYREYVANLYEKPDLDVAVILPCSAKKPYSKSKSHQKVINSLSDLRKYIHEIIVTSPLGVVPRDLEETYPAMFYDIPVIGLWYEDEKVMMKRMLRSYMSRNKYRKVIAFVPDDLEFITDSIPYDTEFIEFKSSNLSKLRQTVEKEKFASKSIDQKKAKYESVLKYQFGSWILPLINGYSLRRNYNQDMIVKDGKILFVYNERLGKFTINKASAEMFVKNGRFLVEIDDFKPTSNVYAMGVRDATDDIRQEDEVVLVHSGEIRGVGIAKMNARAMMELKKGIAVKVREGHHHHHH | soluble
5 | MSLEDVIEQLRELNEPVPVPLELPDEDLLVEIEEQLLINLPFELREFLMKVSDVIYGSLEPVTVSDPQSHTYLPEVAAVAWDQGMPRDMVPLCQVGDDYYAVDIEGQVLLWSSDSGELSDESWDSVWHWAKDVWLASEGHHHHHH | not soluble
6 | MSLEDYTRIVADRMEGQSQVQVRAEGNVVVERNRTTLNADWADYDQSGDTVTAGDRFALQQDGTLIRGETLTYNLEQQTGEAHNVRMETEHGGRRLQSVSRTAEMLGEGHYKLTETQFNTCSAGDAGWYVKAASVEADREKGIGVAKHAAFVFGGVPIFYTPWADFPLDGNRKSGLLVPSLSAGSDGVSLSVPYYFNLAPNLDATFAPGVIGERGAVFDGQVRYLRPDYAGQSDLTWLPHDKKSGRNNRYQAKWQHRHDISDTLQAGVDFNQVSDSGYYRDFYGNKEIAGNVNLNRRVWLDYGGRAAGGSLNAGLSVLKYQTLANQSGYKDKPYALMPRLSADWRKNTGRAQIGVSAQFTRFSHDSRQDGSRLVVYPDIKWDFSNSWGYVRPKLGLHATYYSLNRFGSQEARRVSRTLPIVNIDSGMTFERNTRMFGGGVLQTLEPRLFYNYIPAKSQNDLPNFDSSESSFGYGQLFRENLYYGNDRINTANSLSAAVQSRILDGATGEERFRAGIGQKFYFKNDAVMLDGSVGKKPRSRSDWVAFASSGIGSRFILDSSIHYNQNDKRAENYAVGASYRPAQGKVLNARYKYGRNEKIYLKSDGSYFYDKLSQLDLSAQWPLTRNLSAVVRYNYGFEAKKPIEVLAGAEYKSSCGCWGAGVYAQRYVTGENTYKNAVFFSLQLKDLSSVGRNPADRMDVAVPGYIPAHSLSAGREGHHHHHH | not soluble
7 | MSLEEQLAQNDQPSEKLVRLYGAWAEGGAGVLVTGNVMVAESGKGSINDVLISDDRALEMLKKWAKARTQNDTLLIMQINHAGKQSPAVVNKTPLAPSAVPLVGMNGFINPPRELSADEINGLIQQFVQTAKIAEQAGFSGVQIYAVHGYLISQFLSPHHNRRQDQWGGSLENRMRFLLETYTAIRAAAGKDFLVGVKLNSADFQKGGFDESESVQVVQKLSEMGIDFIEVSGGNYESPQMLAAKDSTRKREAFFIDYAEKARAASQAPLIITGGFRSQTAMEDALSSGHLDLVGIARPFALVPDLANKMQNRTYQTVQADRIQTGVAFVDKKAGAMLEMNWYMTQMDLIGQGKQSNPKIVGVESIAENFAGKEGHHHHHH | not soluble
8 | MSLEEYNLIKPSHCKCQIVELEDIYRRDLNLLVALRVLIEESSVSKAATRLNLSQSAMSRVLGRLRDLLGDPLFTRQGQHLIPTQKALEIDRSLGEPLESLRQLLSPVEFDPQQCDQTFTIATTDYAMQTILPFALPRIYQEAPNVSFNFLPLQHDRLSDQLTYEGADLAICRPTGPVEPLRSEILGRVGVLCLLSKQHPLANQEMSLDDYLSHPHAMIAISDGVKALIEQALIDKPQRKMVLRAYHLEAALAIVDTLPIIITVPADLAYLVAERYDLVVKPLPFQFTPFDYSMIWHARCEHSPAQEWLRSVVREECSRLIAKRIEDMGLNEGHHHHHH | soluble
9 | MSLEFALKAVTEHGPFTDIGKFDQDRWQLFHTDEDRSEAHDLADQHPEKVGEMAALWMSEAKKYHVLPLSDLGVMGILKMEFKPPVPPSRQYAYYPGTSTVPEHSAANTHGVSFKVLADVEFTADSQGILFAHGSRFGGHALYVKNGKLIYVYNFLGIPPEQRLVGDAPRSGKHVVGVEFIKERMGEYKESYGPARLYVDERIVAEAPIRTMTGHFAITGEGLCIGYDSGDGVSNDYRPKFAFSGGKINKVVFDVGADLYVDVETHLVAAMARDEGHHHHHH | soluble
10 | MSLEFAMWAYPWDLLDEGPSEVERRLRDIGIDELNLATNYHTVQAFTPHSPERRTLFARASSYFEPGPEYGDLEPVPYEGMNGDWVADAATGLSDLTLNSWTVGCHNSRLGMANPEYTLESAHGDDLVFGLCPSQPAVQTYLSALVSDLSSRDEFARIELETFDYFYGTGFGWHHQKIHARLGVLGEFLLGLCFCPHCRKNAKAAGVDAERVRSTVADTIDDIVAGDVSHEHPPEEWLADHSTVAAYVDVRERTLASLYATLADAAGTTSLGYYVGAPEPGREWVVGADLQALSNHVDYYCLPAYESSSDAVIGAYNAVETVIDDVPLHIGLLPGHPAIDDEATVVDIVETLDSKGVPRLSFYNYGLLPEQSLEWVETAIETVSEGHHHHHH | soluble
11 | MSLEFSDAELARASALQKRLVTLDSHLDTPANLERGDFDVMQGHAGNRLSQVDYPRMLEGALDGGFWAVYTGQGNRSAAAHLDDRDAGLQRLMKIHNLLAAQPQRFALATTPADAARIKAAGKRVVYISMENASPLVADPSLLRFYYAQGLRLMSTVHFLNNEFADSATDPKGAEWKGLSPAGKQLVQQALGIVIDQSHASDAVFDQLIALSPVPIVLSHSGARAVYNHPRNIDDARLKVLAAHGGVIQVNSYGGYLIDSGASPERKAAEKALADQYGGWEHLKMSDGTALSEALKALDARYPVKRATEEDFFAHLEHVLAVAGPAHVGIGMDWDGGGGVVGLEDVSDLPRITAWLLRKGYSEPQIAGIWGGNLLRVMEQAQAYAAGNRESGVGNREGHHHHHH | not soluble
12 | MSLEIERYIVPKETWPEIIIPVEVQEYIGERKELNLAEELLDRNIREGRGRKVAVYFEDRRVTYRDLYRLSNKIANFLVGIGVQPYDRVGFRTRNMPEAIAVNFGIMKAGAIPVPLNPMWAGKEVSFVSNNAEIKALFVSGDERVFPAVNEVKDEIKTAKAMVVMDGEKEGFIPFSEVTAESAKFDPILLKIGTPALILYTSGTTGLPKGCVHFVENVISSVYLVGKHVWKLTPDDVVGGPAPVSFAMGYGNGCLIPYFHGAAASIWPRFSVENFFKYVEEHGITVFSSLPTSYRMILADPKLEEYMNKYDISSLRLFTGGGEALGAETAKRWKEVFGMDIYESLGATEMLHICIANACAPKPVAGSIGFPVPGYIAKIVDPETGKECGADEVGSLYIKGPTGIRYWNHPSRDLSEKQAKSVKNGWNVLGDFVRKDENGYIYFVSRDDDLIKSSGYRIGPDEIEQPLNTHPAVAECAVIGVPDPEGIRGQVVKAIIRLKEGYTPDEKLKEDILAFLEKHIAKYKLPRIIEFTDKPLPRTPTGKLLRRLLKQSEGHHHHHH | not soluble
13 | MSLEIRRADKDDLDDFVRVYVESYRGLEDYAYTRKRDVKNYFKWLLSRDKDGVMVAEIDGEAVGFVACDTNWFSIFERKKVGEIHELFVLPEFRGEGIGAKLMEKALEYALERNRKVAELWVGRTNYRARRFYASQDLRRPESGGSGSEEGHHHHHH | not soluble
14 | MSLEKQFFHPDRVKYDKDCFTIEGKDIFILSAAFHYFRCPQELWRDRFRKIKEAGFNTVETYVPWNWHERNMPKSVDDYSQCNFDDLKAWLHMAHEEFGLYTIVRPGPFICAEWAGGAYPRWLAKFCPDSYDTSFWLRSNHPEHMKWSEHWYNAVCRVFSEEQLTRKQPGEKGIIMVQLENEYIYFDMESEKKEEFLRVLSDACIRNGIDVPLFTCVTPEVRGSHDPVISQLFDMDNQYVWWNMHEAKSRIEKLKAEQPNAPAFVCELQGGWFSTVGGRLSEDSYLDGRHARGMALMAMAGGSTGLNYYMFFGGTHFAGWGARRMTTTYDYGAPLKENGGVGEKYAAVKGIGEVVDKFGGLLVRSRPVRFDVQGADNLTIGIRRAADGTLFVFLLNRDKKQAFRQLVNLTVEGKPMRIDCQLAALDSKLLVVHAGTDTVEWYPREQTLPEREGHHHHHH | soluble
15 | MSLEKQKGLAIITGASQGIGAVIAAGLATDGYRVVLIARSKQNLEKVHDEIMRSNKHVQEPIVLPLDITDCTKADTEIKDIHQKYGAVDILVNAAAMFMDGSLSEPVDNFRKIMEINVIAQYGILKTVTEIMKVQKNGYIFNVASRAAKYGFADGGIYGSTKFALLGLAESLYRELAPLGIRVTTLCPGWVNTDMAKKAGTPFKDEEMIQPDDLLNTIRCLLNLSENVCIKDIVFEMKKSIIEGHHHHHH | soluble
